T1: mouse VEGF165 (Mus musculus, UniProt Q00731)
T1 sequence (Q00731 27-190 isoform Q00731-2): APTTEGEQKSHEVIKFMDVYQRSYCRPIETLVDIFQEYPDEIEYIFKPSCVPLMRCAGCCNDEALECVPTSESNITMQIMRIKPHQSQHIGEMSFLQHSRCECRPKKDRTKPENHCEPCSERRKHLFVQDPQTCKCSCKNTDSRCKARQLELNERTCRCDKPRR

T2: human VEGF165 (Homo sapiens, UniProt P15692)
T2 sequence (P15692 27-191 isoform P15692-4): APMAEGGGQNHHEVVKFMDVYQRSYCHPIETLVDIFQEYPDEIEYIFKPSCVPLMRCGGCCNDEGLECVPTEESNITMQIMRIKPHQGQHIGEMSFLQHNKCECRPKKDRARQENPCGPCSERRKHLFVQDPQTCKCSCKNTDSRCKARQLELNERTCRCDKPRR


Assays:
[1] = target: mouse DLL4-Fc; experiment: Biacore binding affinity (KD) to mouse DLL4; conditions: Biacore 2000, mouse DLL4-Fc on CM5 chip; read-out: KD mDLL4
Protocol: (§1) The KDs of parental antibodies anti-VEGF 219R45 (IgG format), anti-DLL4 21R79 (IgG format), anti-DLL4 21M18 (IgG format) and bispecific antibodies 219R45-MB-21M18 and 219R45-MB-21R79 were determined using a Biacore 2000 system from Biacore LifeSciences (GE Healthcare). Recombinant human DLL4-Fc or mouse DLL4-Fc proteins were immobilized on CM5 carboxyl chips using standard amine-based chemistry (NHS/EDC) and blocked with ethanolamine. Recombinant human VEGF165 or mouse VEGF165 were biotinylated and immobilized on streptavidin chips. The antibodies were serially diluted 2-fold from 100 nM to 0.78 nM in HBS-P (0.01M HEPES pH7.4, 0.15M NaCl, 0.005% v/v Polysorbate 20). For each antibody, all 8 dilutions were sequentially injected over a specific chip. Kinetic data were collected over time and were fit using the simultaneous global fit equation to yield affinity constants (KD values) for each bispecific antibody.

[2] = target: T1, mouse VEGF165; experiment: Biacore binding affinity (KD) to mouse VEGF; conditions: Biacore 2000, biotinylated mouse VEGF165 on streptavidin chip; read-out: KD mVEGF
Protocol: as §1

[3] = target: human DLL4-Fc (Homo sapiens, UniProt Q9NR61); experiment: Biacore binding affinity (KD) to human DLL4; conditions: Biacore 2000, human DLL4-Fc on CM5 chip; read-out: KD hDLL4
Protocol: as §1
Several additional anti-DLL4 antibodies were identified that had binding affinities intermediate to the KDs of 21M18 and 21R79. Two of these anti-DLL4 antibodies were used to produce anti-VEGF/anti-DLL4 bispecific antibodies 219R45-MB-21R75 and 219R45-MB-21R83. Using the Biacore 2000 system as described above, the KDs of the bispecific antibodies 219R45-MB-21R75 and 219R45-MB-21R83 to human DLL4 were determined.

[4] = system: VEGF-induced proliferation of HUVEC cells; experiment: HUVEC proliferation assay; type: cell-based, human; conditions: hVEGF 5 ng/ml, Alamar Blue on day 7
Protocol: FIG. 3. Inhibition of VEGF-induced HUVEC proliferation by anti-VEGF/anti-DLL4 bispecific antibodies. Fluorescence intensity is read using an excitation wavelength of 530 nm and an emission wavelength of 590. 219R45-MB-21M18 (-●-); 219R45-MB-21R79 (-▴-); 219R45 (-▪-); Medium with no VEGF (-⋄-).
HUVEC cells were obtained from Lonza (Walkersville, Md.) and cultured in growth media (M199, 10% heat-inactivated FBS (HI-FBS), 50 μg/ml EGS, 1X heparin, 1 mM L-glutamine). For the HUVEC proliferation assay, a 96-well plate was pre-coated with 50 μl of 10 μg/ml rat tail collagen type I solution (collagen I in 0.02N acetic acid) and incubated at 4° C. overnight. After incubation, the plate was thoroughly aspirated to remove unbound collagen I solution and washed once with 200 μl DPBS. The HUVEC cells were removed from the surface of the growth flasks using an endothelial cell subclone reagent and centrifuged at 1200 rpm for 5 minutes at 4° C. The cells were resuspended in starvation/assay medium (M199 and 2% HI-FBS, 1× heparin, 5 U/ml heparin-glutamine) at a density of 10^5 cells/ml. The cells were seeded into the collagen-coated assay plate at 5000 cells/well, 50 ul/well. The cells were incubated for 3 hours at 37° C., washed one time, refed with 100 ul assay media, and incubated overnight at 37° C. The next day, bispecific antibodies 219R45-MB-21M18, 219R45-MB-21R79, parental antibody 219R45, or control antibody LZ1 were prepared in a mixture with human VEGF (R&D Biosystems, Minneapolis, Minn.). The antibodies were serially diluted 5-fold from […] to 0.25 nM in assay buffer in combination with hVEGF (final concentration 5 ng/ml). The mixture was pre-incubated at 37° C. for 2 hours. The medium was removed from the assay plate, and 100 μl of the antibody/hVEGF mixture was added to each well. […] The plate was read with a SpectraMax M5e Microplate reader (Molecular Devices, Sunnyvale CA) using a excitation wavelength of […] and an emission wavelength of 590 nm.

[5] = target: T2, human VEGF165; experiment: Biacore binding affinity (KD) to human VEGF; conditions: Biacore 2000, biotinylated human VEGF165 on streptavidin chip; read-out: KD hVEGF
Protocol: as §1

[6] = system: DLL4-induced Notch signaling; experiment: DLL4-induced Notch signaling luciferase reporter assay in Notch2-expressing PC3 cells; type: cell-based; conditions: coated human DLL4 100 ng/well, antibody 20 to 0.064 ug/ml
Protocol: FIG. 4. Inhibition of DLL4-induced Notch signaling by anti-VEGF/anti-DLL4 bispecific antibodies. Luciferase activity was measured using a dual luciferase assay kit with firefly luciferase activity normalized to Renilla luciferase activity. 219R45-MB-21M18 (-●-); 219R45-MB-21R79 (-▪-); 21M18 (-∘-); 21R79 (-□-).
Human PC3 cells were transfected with an expression vector encoding a full-length human Notch2 receptor and a firefly luciferase reporter vector (8× CBF-luciferase reporter) that is responsive to Notch signaling. The cells were also transfected with a Renilla luciferase reporter (Promega, Madison, Wis.) as an internal control for transfection efficiency. Purified human DLL4 protein was coated onto 96-well plates at 100 ng/well and Notch2-expressing PC3-luc cells were added to the wells. Anti-VEGF/anti-DLL4 bispecific antibodies 219R45-MB-21M18, 219R45-MB-21R79, parental anti-DLL4 antibodies 21M18, 21R79 or a control antibody LZ1 were serially diluted 5-fold from 20 ug/ml to 0.064 ug/ml, added to the appropriate wells, and incubated overnight. Luciferase activity was determined using a dual luciferase assay kit (Promega, Madison, Wis.) with firefly luciferase activity normalized to Renilla luciferase activity.

Chain of mouse DLL4-Fc (Q9JI71 27-519 limits assumed): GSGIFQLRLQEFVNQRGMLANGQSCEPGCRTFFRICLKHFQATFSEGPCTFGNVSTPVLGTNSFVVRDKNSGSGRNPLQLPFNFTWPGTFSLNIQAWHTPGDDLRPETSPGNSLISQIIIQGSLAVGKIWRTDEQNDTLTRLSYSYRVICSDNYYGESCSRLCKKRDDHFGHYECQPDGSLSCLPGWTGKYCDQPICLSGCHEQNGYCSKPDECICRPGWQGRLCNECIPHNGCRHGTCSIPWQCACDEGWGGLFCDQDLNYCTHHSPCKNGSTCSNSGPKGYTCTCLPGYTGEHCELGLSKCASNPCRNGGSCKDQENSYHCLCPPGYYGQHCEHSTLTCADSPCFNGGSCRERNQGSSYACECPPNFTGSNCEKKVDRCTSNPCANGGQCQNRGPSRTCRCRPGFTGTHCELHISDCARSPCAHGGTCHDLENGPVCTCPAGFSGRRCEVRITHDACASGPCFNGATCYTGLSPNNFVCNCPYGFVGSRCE
Chain of human DLL4-Fc (Q9NR61 27-522 limits assumed): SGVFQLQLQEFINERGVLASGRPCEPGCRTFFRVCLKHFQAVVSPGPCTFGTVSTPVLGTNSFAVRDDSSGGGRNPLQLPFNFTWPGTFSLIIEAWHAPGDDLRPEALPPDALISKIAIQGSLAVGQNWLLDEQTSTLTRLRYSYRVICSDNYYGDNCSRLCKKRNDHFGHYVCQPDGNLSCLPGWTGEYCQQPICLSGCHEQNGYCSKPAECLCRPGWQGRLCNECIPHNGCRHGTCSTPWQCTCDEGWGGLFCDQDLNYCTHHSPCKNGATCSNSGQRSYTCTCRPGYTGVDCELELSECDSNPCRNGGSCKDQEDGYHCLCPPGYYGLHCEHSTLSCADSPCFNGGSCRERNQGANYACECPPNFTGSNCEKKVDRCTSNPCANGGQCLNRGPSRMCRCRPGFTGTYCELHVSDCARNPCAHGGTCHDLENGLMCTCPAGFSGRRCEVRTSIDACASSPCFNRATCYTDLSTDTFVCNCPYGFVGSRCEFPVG

| Kd [1] [nM] | Kd [2] [nM] | Kd [3] [nM] | Kd [5] [nM] | Molecule | inhibition of VEGF-induced HUVEC proliferation [4] | inhibition of DLL4-induced Notch signaling [6] |
| --- | --- | --- | --- | --- | --- | --- |
| > 100 | ~23 | > 100 | – | 219R45: monoclonal antibody that specifically binds human VEGF; parental anti-VEGF antibody (antibody) heavy: QVQLVQSGAEVKKPGASVKVSCKASGYTFTNYWMHWVRQAPGQGLEWMGDINPSNGRTSYKEKFKRRVTLSVDKSSSTAYMELSSLRSEDTAVYFCTIHYDDKYYPLMDYWGQGTLVTVSSASTKGPSVFPLAPCSRSTSESTAALGCLVKDYFPEPVTVSWNSGALTSGVHTFPAVLQSSGLYSLSSVVTVPSSNFGTQTYTCNVDHKPSNTKVDKTVERKCCVECPPCPAPPVAGPSVFLFPPKPKDTLMISRTPEVTCVVVDVSHEDPEVQFNWYVDGVEVHNAKTKPREEQFNSTFRVVSVLTVVHQDWLNGKEYKCKVSNKGLPAPIEKTISKTKGQPREPQVYTLPPSREEMTKNQVSLTCLVKGFYPSDIAVEWESNGQPENNYKTTPPMLDSDGSFFLYSKLTVDKSRWQQGNVFSCSVMHEALHNHYTQKSLSLSPGK light: DIVMTQSPDSLAVSLGERATISCRASESVDNYGISFMKWFQQKPGQPPKLLIYAASNQGSGVPDRFSGSGSGTDFTLTISSLQAEDVAVYYCQQSKEVPWTFGGGTKVEIKRTVAAPSVIFPPSDEQLKSGTASVVCLLNNFYPREAKVQWKVDNALQSGNSQESVTEQDSKDSTYSLSSTLTLSKADYEKHKVYACEVTHQGLSSPVTKSFNRGEC | inhibited HUVEC proliferation | – |
| > 100 | > 100 | – | > 100 | 21R79: monoclonal antibody that specifically binds human DLL4; parental anti-DLL4 antibody (antibody) heavy: QVQLVQSGAEVKKPGASVKISCKASGYSFTAYYIHWVKQAPGQGLEWIGYIANYNRATNYNQKFKGRVTFTTDTSTSTAYMELRSLRSDDTAVYYCARDYDYDVGMDYWGQGTLVTVSSASTKGPSVFPLAPCSRSTSESTAALGCLVKDYFPEPVTVSWNSGALTSGVHTFPAVLQSSGLYSLSSVVTVPSSNFGTQTYTCNVDHKPSNTKVDKTVERKCCVECPPCPAPPVAGPSVFLFPPKPKDTLMISRTPEVTCVVVDVSHEDPEVQFNWYVDGVEVHNAKTKPREEQFNSTFRVVSVLTVVHQDWLNGKEYKCKVSNKGLPAPIEKTISKTKGQPREPQVYTLPPSREEMTKNQVSLTCLVKGFYPSDIAVEWESNGQPENNYKTTPPMLDSDGSFFLYSKLTVDKSRWQQGNVFSCSVMHEALHNHYTQKSLSLSPGK light: DIVMTQSPDSLAVSLGERATISCRASESVDNYGISFMKWFQQKPGQPPKLLIYAASNQGSGVPDRFSGSGSGTDFTLTISSLQAEDVAVYYCQQSKEVPWTFGGGTKVEIKRTVAAPSVIFPPSDEQLKSGTASVVCLLNNFYPREAKVQWKVDNALQSGNSQESVTEQDSKDSTYSLSSTLTLSKADYEKHKVYACEVTHQGLSSPVTKSFNRGEC | – | inhibited DLL4-induced Notch signaling |
